{"source": "paper doi:10.1101/2025.02.20.639385", "biological_target": "MBP-RAB23T22N (Chlamydomonas reinhardtii)", "experiment": "SEC", "data": [{"substance": "RAB18S22N (bacterially expressed, 6×His-tag removed) (natural protein)", "values": [{"measurement": "stoichiometry N", "result": 1}]}]}
